Laboratory results published in patent US12070492B2, “Therapeutic compositions and methods with cytokine signaling immunomodulators” (Hennepin Healthcare Research Institute, priority 2016, dated 2024).

B1: IL-4: recombinant mouse IL-4 from Bio-Techne Corp., co-administered with OXY-KLH (protein, UniProt P07750 21-140, looked up)
Interleukin-4: HIHGCDKNHLREIIGILNEVTGEGTPCTEMDVPNVLTATKNTTESELVCRASKVLRIFYLKHGKTPCLKKNSSVLMELQRLFRAFRCLDSSISCTMNESKSTSLKDFLESLKSIMQMDYS

Legend:
[1] = Pre-clinical toxicology: serum biochemistry parameters and body weight; type: in vivo, BALB/c mice
Method: Serum biochemistry parameters in BALB/C mice treated with KLH, OXY-KLH, anti-IL-4 mAb, or anti-IL-4 mAb plus OXY-KLH. […] The values for AST (aspartate aminotransferase) were higher among groups, perhaps as a result of muscle injury due from the injections.
(§1) Male BALB/c mice were immunized with KLH, OXY-KLH, anti-IL-4 mAb, or OXY-KLH plus anti-IL-4 mAb. The OXY-KLH and the unconjugated KLH control were administered subcutaneously on days 0, 14 and 28, while the anti-IL-4 mAb was administered intraperitoneally as in EXAMPLE 2. A week after the third immunization, mice were euthanized with CO2 to perform histopathology and clinical pathology by serum chemistry. Organs were harvested and preserved in 10% formaldehyde (methanol free, ultrapure EM grade, Polysciences, Inc., Warminster, PA), and sent to the University of Minnesota School of Veterinary Medicine for histology analysis in the laboratory of Dr. Davis Seelig. Serum was collected by centrifugation at 7500 rpm for three minutes at 4° C. and collected in lithium heparin ([…], Becton, Dickinson and Co., Franklin Lakes, NJ). Frozen samples were sent to Marshfield Labs (Marshfield, WI) for the panel tests analysis.

[2] = Histopathology across four treatment groups; type: in vivo, BALB/c mice
Method: FIG. 12. Co-administration of vaccines and an anti-IL-4 mAb is safe. Histopathology across four treatment groups. […] Occasionally, these regions of were centered on lymphocyte-rich lymphatic vessels. The severity of the lung pathology was similar across the four treatment groups.
as §1

6OXY-specific GC B cells = 6OXY-specific GC B cells by magnetic enrichment and flow cytometry after OXY-KLH with IL-4; type: in vivo, mice; conditions: IL-4 60,000 IU s.c. with OXY-KLH in alum, seven days after one immunization
Text: FIG. 4. IL-4 increased vaccine-specific GC B cells and post-vaccination GC formation. Mice were immunized subcutaneously once with the OXY-KLH vaccine adsorbed in alum adjuvant with saline or IL-4 (60,000 IU, subcutaneously). At seven days after immunization, lymph nodes and spleens were collected for analysis of antigen-specific B cell populations. Using a two-step procedure, OXY-specific B cells were first isolated by magnetic enrichment using biotinylated oxycodone-based haptens conjugated to streptavidin (SA) conjugated to the fluorescent protein phycoerythrin (PE) or a decoy reagent, and then analyzed by multi-parameter flow cytometry. (A) 6OXY-specific CD38^neg GL7^high “committed” GC B cells; (B) 6OXY-specific CD38^+ GL7^+ “uncommitted” GC B cells; (C) Ratio of 6OXY-specific (CD38^neg) to (CD38^+) GL7^+ B cells, a measure of GC activation and B cell commitment to GC-dependent pathways; (D) 6OXY-specific IgM^high naive and memory B cells. Data shown are from two independent experiments and expressed as mean±SEM (n=10). […] Statistical symbols: *p<0.05, and […].
Mice were immunized subcutaneously once with OXY-KLH in alum adjuvant in combination with IL-4 (60,000 IU, Bio-Techne Corp., Minneapolis, MN). […]

[3] = serum, BALB/c mice, a week after third immunization, mean ± SEM

| Molecule | Body weight ([1]; BALB/c mice, a week after third immunization, mean ± SEM) [g] | Protein, bilirubin, ALT, urea nitrogen, and total cholesterol versus normal range ([1]; serum, BALB/C mice) | Values for AST (aspartate aminotransferase) ([1]; serum, BALB/C mice, perhaps muscle injury from the injections) | ALT [1, 3] | AST [1, 3] [U/L] | Cholesterol [1, 3] [mg/dL] | Total bilirubin [1, 3] [mg/dL] | Total protein [1, 3] [g/dL] | Urea nitrogen [1, 3] [mg/dL] | Histopathology, kidney, heart, thymus, stomach, small intestine, large intestine, and pancreas ([2]; mouse, in vivo) | Histopathology, spleen ([2]; mouse, in vivo) | Histopathology, liver (centrolobular hepatocytes) ([2]; similar in severity across four treatment groups) | Histopathology, lungs (interstitium) ([2]; with concurrent congestion, severity similar across the four treatment groups) | post-vaccination GC formation (fraction of subjects) (6OXY-specific GC B cells) | vaccine-specific GC B cells (6OXY-specific GC B cells) |
| --- | --- | --- | --- | --- | --- | --- | --- | --- | --- | --- | --- | --- | --- | --- | --- |
| keyhole limpet hemocyanin [KLH] | 26.5 ± 0.39 | in the normal range | higher | 71.6 ± 3.2^ U/L | 626 ± 24.7 | 161 ± 10.4 | 0.2 ± 0.10 | 5.7 ± 0.32 | 20 ± 1.5 | No significant pathology | No significant pathology | occasionally moderate vacuolar change | mild to occasionally moderately increased numbers of inflammatory cells | – | – |
| B1 | – | – | – | – | – | – | – | – | – | – | – | – | – | increased | increased |
